Source: patent US7341730B1, “Inhibitors of angiogenesis and tumor growth” (University of Southern California, priority 1998, dated 2008)
“Also recorded” adds a separate entry of the source.

What was measured:
[1] = tested on: angiogenesis induced by VEGF or bFGF in chicken allantoic membrane (CAM); assay: Chicken allantoic membrane (CAM) angiogenesis assay; format: in vivo; conditions: 48 hours
Procedure: In order to test anti-angiogenic activity, chicken allantoic membrane (CAM) assays were performed with recombinant Saposin B. Ten day old fertilized chicken eggs were prepared for assay by creating a window in the egg shell, and placing filter paper discs saturated with VEGF or bFGF as positive controls, test compounds, or carrier buffer (negative controls) on the allantoic membrane. The membranes were harvested after 48 hours and analyzed using an Olympus stereomicroscope. The number of branching blood vessels that infiltrated under the discs were counted and photographed. Eight CAMs were studied for test group, and the experiments were repeated at least twice.

[2] = tested on: KS-SLK or KS Y-1 tumors; assay: KS tumor growth in nude mice; format: in vivo
Procedure: FIG. 6: Effect of pentapeptide DVCQD (SEQ ID NO:28) on the growth of established KS Y-1 tumors in mice. Mice were implanted with the tumor on day one. Treatment with the peptide was started on the following day at a dose of 50 mg/kg subcutaneously daily. […] The arrow marks initiation of daily subcutaneous dosing.
In order to determine the anti-angiogenic activity of the recombinant Saposin B, tumor cells were implanted in immuno-deficient mice and treated with either Saposin B or buffer alone.
Nude mice were injected with 2×10^6 KS-SLK or KS Y-1 cells subcutaneously in a total volume of 100 μL. After one week of tumor development, the mice were injected subcutaneously daily with either PBS or Saposin B at concentrations of 1, 10 and 20 mg/kg for a total protein concentration of […]. The tumor size was measured three times a week. The results represent the median of 4 mice in each group.
(§1) To determine whether this anti-tumor effect was reproducible with different classes of syngeneic-tumors, C57BL/6 mice were implanted with Lewis lung carcinoma, melanoma (B16), and T-cell lymphoma (EL-4) cell lines. KS Y-1 was implanted into nude mice for a positive control. The day following tumor implantation, 2.5 mg/kg of Saposin B was administered intraperitoneally. Tumor size was measured three times a week for two weeks at which time the mice were sacrificed for analysis. […] See, FIG. 4
In further experiments, KS tumors were allowed to grow for five days before treatment with Saposin B (1 and 5 mg/kg daily at a distal site from the timer tumor). In control mice, tumors grew to a weight of 555+mg. […] Tumors excised at the conclusion of the experiments were also examined for apoptosis, blood vessel density, and mitotic index. […] Thus, contrary to the results in vitro, Saposin B has an inhibitory effect against […] tumors.

[3] = tested on: KS cell lines; assay: Growth inhibition of KS cell lines by recombinant proteins; format: cell-based; conditions: recombinant or naturally occurring protein
Procedure: (§2) Typically, in an anti-proliferation assay, the suppression of growth in the presence of the compound to be tested is measured. For example, the above cells are incubated with the polypeptides of this invention for a suitable time and the decrease in the growth rate relative to a negative control, i.e., cells of the same cell line which have been incubated in media alone, is measured. Growth of the cell culture can be measured by any method acceptable to one of skill, including but not limited to, 3H-thymidine uptake, cell counting and tetrazolium dye uptake.
(§3) By SDS-PAGE, the bacterial product was smaller than the eukaryotic protein. Because prokaryotically expressed proteins are not glycosylated, the difference in molecular weights probably represents the presence of carbohydrate in the eukaryotic protein. Recombinant proteins were then tested in KS, endothelial and control cell lines. Activity was found only in KS cell lines and endothelial cells.

[4] = tested on: KS cell lines; assay: KS cell migration in transwell plates; format: cell-based; conditions: chemotaxis induced by VEGF or bFGF
Procedure: The assays were done in double chamber wells separated by fibrinogen-coated membrane. Chemotaxis was induced by bFGF (25 ng/mL) in the lower chamber. Endothelial cells or KS cells (5×10^4/mL) were placed in the upper chamber in the presence and absence of test polypeptides. Taxol at 10 ng/mL was used as a known inhibitor of migration. Cell migration across the membrane was quantitated after an overnight incubation.
Angiogenesis is mediated by complex biochemical processes including degradation of the basement membrane under existing blood vessel endothelial cells, followed by proliferation and migration of endothelial cells, followed by formation of capillary loops, and recruitment of vascular smooth muscle cells to encase the newly formed vessels and provide stability. KS and endothelial cell migration in the presence of Saposin B was studied in transwell culture plates with 8 μm pore membranes (Costar, Cambridge, Mass.).
Briefly, wells were coated with fibronectin (25 μg/mL) overnight, and endothelial cells or KS cells were plated in the upper chamber with 100 μL of DMEM/0.4% FCS. 500 μL of DMEM/0.4% FCS was added to the lower chamber and incubated at 37° C. for one hour. The test polypeptides, at various concentrations, were added to the upper chamber, and chemotactic agents (VEGF or bFGF at 20 ng/mL) were added to the lower cell-culture chambers. The plates were incubated for 5 hr at 37° C. and the cells crossing the fibronectin-coated membrane were counted after wiping the cells off the membrane in the upper chamber with a cotton swab.
The cells that traversed the membrane were fixed with Diff-Quik stain according to the manufacturer's instruction (Dade Diagnostics Inc., Aguada, PR). The cells were counted under a microscope at 320× in four randomly selected fields. The experiments were done in duplicate and repeated at least three times.

[5] = tested on: T-cell lymphoma (EL-4); assay: Syngeneic tumor growth in C57BL/6 mice, T-cell lymphoma (EL-4); format: in vivo; conditions: 2.5 mg/kg from the day following implantation, two weeks
Procedure: (§4) FIG. 4: Inhibition of tumor growth in mice. C57BL/6 mice were implanted with Lewis lung carcinoma, melanoma (B 16), and T-cell lymphoma (EL4). KS Y-1 was implanted in nude mice as a positive control. One day after implantation 2.5 mg/kg of Saposin B was injected into the mice subcutaneously.
as §1

[6] = tested on: Lewis lung carcinoma; assay: Syngeneic tumor growth in C57BL/6 mice, Lewis lung carcinoma; format: in vivo; conditions: 2.5 mg/kg from the day following implantation, two weeks
Procedure: as §4, §1

[7] = tested on: Human bone marrow cells and peripheral blood mononuclear cells; assay: Stem cell clonogenic assays in methylcellulose; format: cell-based; conditions: VEGF 10 and 100 ng/mL
Procedure: Human bone marrow cells and peripheral blood mononuclear cells were harvested from a subject after the administration of high doses of cyclophosphamide and G-CSF. Stem cell clonogenic assays in methylcellulose were performed with IL-3, erythropoietin, and VEGF (10 ng/mL, and 100 ng/mL). VEGF was used to determine if there are progenitor cells with self replication capacity but without adherence to extracellular matrix such as fibronectin. It was also desirable to determine if Saposin B was toxic to endothelial cell specific progenitors for hematopoietic (myeloid or erythroid) lineage cells.
These colonies contained mixture of cells indicating more than one cell lineage generated in response to VEGF. The colonies also contained spindle shaped cells which mark the presence of VEGF receptors.

[8] = tested on: CD34+ cord blood derived cells; assay: Viability of CD34+ cord blood derived cells; format: cell-based, human
From the text: However in the presence of Saposin B, CD34^+/Flk-1^+ progenitor growth was inhibited.
Saposin B was found not to be toxic to most CD34^+ cord blood derived cells, since the difference in viability of Saposin B treated CD34^+ cells was only around 20% when compared to control cells. Thus Saposin B not only targets fully differentiated and activated endothelial cells, but also a circulating progenitor, previously shown to target angiogenic sites.

[9] = tested on: CD34+/Flk-1+ cells from cord blood; assay: Growth of CD34+/Flk-1+ progenitors on fibronectin coated dishes; format: cell-based, human; conditions: 50 ng/mL
From the text: A bone marrow derived human CD34+/Flk-1+ progenitor cell can be mobilized into the blood stream in response to tumor induced signals such as VEGF and cytokine production. These cells can target to sites of angiogenesis where they mature into activated endothelial cells and thus contribute to the generation of new blood vessels at the tumor site. By blocking the production of these cells or by targeting these cells (i.e., the CD34+/Flk-1+ progenitors and the activated endothelial cell they can become), the angiogenesis/vasculogenesis required for tumor growth can be reduced or halted. […] The adherent cells take on a spindle-shaped morphology characteristic of the activated vascular endothelial cells typical of the angiogenic process. These cells express endothelial-specific markers including factor VIII, ulex europaeus agglutinin-1 (UEA-1), endothelial constitutive nitric oxide synthase (ecNOS), and E selectin. Further, when these cells (peripheral blood Flk+ progenitors) are infused into mice, they incorporate into newly formed blood vessels at site of injury. These observation identify CD34+/Flk-1+ bone marrow derived progenitors as a putative precursor to vascular endothelial cells. Preventing these cells from colonizing at distal sites of angiogenesis in tumors has enormous implication for the treatment of tumors. […]

[10] = tested on: melanoma (B16); assay: Syngeneic tumor growth in C57BL/6 mice, melanoma (B16); format: in vivo; conditions: 2.5 mg/kg from the day following implantation, two weeks
Procedure: as §4, §1

[11] = tested on: endothelial cells (HUVEC); assay: Growth inhibition of endothelial cells; format: cell-based
Procedure: as §2, §3

[12] = KS tumors grown five days before treatment, 1 and 5 mg/kg daily

B1: Saposin B: polypeptide fragment of Prosaposin, positions 190 to 269 (SEQ ID NO:2); tested as recombinant protein (protein, listed as Homo sapiens)
chain: GDVCQDCIQMVTDIQTAVRTNSTFVQALVEHVKEECDRLGPGMADICKNYISQYSEIAIQMMMHMQPKEICALVGFCDEVK
modifications: Saposin B
notes: tested as recombinant protein
inhibition of angiogenesis (number of blood vessel branches) in CAMs [1]: effectively blocked angiogenesis; also recorded: inhibited by Saposin B in a dose-dependent fashion | tumor growth ([2]; KS Y-1 in nude mice, 2.5 mg/kg from the day following implantation, two weeks): profound inhibition of tumor growth | apoptosis in excised tumors [2, 12]: increase in apoptosis | blood vessel density in excised tumors [2, 12]: decrease in blood vessel density | weights of excised tumors relative to controls [2, 12]: approximately 23% | tumor growth ([2]; nude mice, KS-SLK or KS Y-1, subcutaneously daily after one week, 1, 10 and 20 mg/kg): markedly retarded | growth inhibition / activity against KS cell lines [3]: dose dependent growth inhibition | inhibition of KS cell migration [4]: compete inhibition of cell migration | tumor growth [5]: profound inhibition of tumor growth | tumor growth [6]: profound inhibition of tumor growth | effect on colonies generated with VEGF [7]: loss of spindle shaped cells | difference in viability of treated CD34+ cells compared to control cells [8]: around 20% | CD34+/Flk-1+ progenitor growth [9]: inhibited | tumor growth [10]: profound inhibition of tumor growth | growth inhibition / activity against endothelial cells [11]: dose dependent growth inhibition
